In experiment [1] the target is T1, Human active C1s (Complement Technology) (human, UniProt P09871 16-688).
T1 sequence: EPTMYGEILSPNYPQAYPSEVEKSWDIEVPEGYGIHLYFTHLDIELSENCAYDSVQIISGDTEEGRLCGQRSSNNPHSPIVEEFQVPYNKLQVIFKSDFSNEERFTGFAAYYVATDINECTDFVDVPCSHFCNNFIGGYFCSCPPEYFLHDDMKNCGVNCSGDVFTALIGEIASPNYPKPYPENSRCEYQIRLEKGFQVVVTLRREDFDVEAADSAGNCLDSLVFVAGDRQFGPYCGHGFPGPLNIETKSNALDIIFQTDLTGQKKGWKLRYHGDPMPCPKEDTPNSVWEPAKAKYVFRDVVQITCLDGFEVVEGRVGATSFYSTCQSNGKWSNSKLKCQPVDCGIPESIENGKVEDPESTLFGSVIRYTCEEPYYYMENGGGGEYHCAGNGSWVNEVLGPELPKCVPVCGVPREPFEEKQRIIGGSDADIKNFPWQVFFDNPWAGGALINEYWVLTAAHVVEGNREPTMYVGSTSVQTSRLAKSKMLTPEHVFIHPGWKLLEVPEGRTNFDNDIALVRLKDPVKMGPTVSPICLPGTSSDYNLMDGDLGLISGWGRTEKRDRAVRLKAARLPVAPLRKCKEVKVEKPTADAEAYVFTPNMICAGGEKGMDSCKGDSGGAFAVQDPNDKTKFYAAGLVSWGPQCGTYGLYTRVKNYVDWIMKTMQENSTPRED
In words: cell-based or functional assay.

Experiment [2] addresses T1, Human active C1s (Complement Technology). In words: cell-based or functional assay. The source holds these as a separate data set.
Experiment [3] concerns the target T2, His-tagged recombinant human TfR (produced in-house) (human, UniProt P02786 89-760).
T2 construct: also called hTfR; transferrin receptor 1
In words: affinity of bispecific purified from CHO cells (SPR; details not restated).

Experiment [4] deals with T1, Human active C1s (Complement Technology). The description is as above.
Another experiment deals with T3, cynomolgus TfR (cynomolgus, UniProt H9EXL1 89-760 (rhesus entry)).
T3 construct: also called Cyno TfR; cTfR
T3 sequence (chain, as listed by the source): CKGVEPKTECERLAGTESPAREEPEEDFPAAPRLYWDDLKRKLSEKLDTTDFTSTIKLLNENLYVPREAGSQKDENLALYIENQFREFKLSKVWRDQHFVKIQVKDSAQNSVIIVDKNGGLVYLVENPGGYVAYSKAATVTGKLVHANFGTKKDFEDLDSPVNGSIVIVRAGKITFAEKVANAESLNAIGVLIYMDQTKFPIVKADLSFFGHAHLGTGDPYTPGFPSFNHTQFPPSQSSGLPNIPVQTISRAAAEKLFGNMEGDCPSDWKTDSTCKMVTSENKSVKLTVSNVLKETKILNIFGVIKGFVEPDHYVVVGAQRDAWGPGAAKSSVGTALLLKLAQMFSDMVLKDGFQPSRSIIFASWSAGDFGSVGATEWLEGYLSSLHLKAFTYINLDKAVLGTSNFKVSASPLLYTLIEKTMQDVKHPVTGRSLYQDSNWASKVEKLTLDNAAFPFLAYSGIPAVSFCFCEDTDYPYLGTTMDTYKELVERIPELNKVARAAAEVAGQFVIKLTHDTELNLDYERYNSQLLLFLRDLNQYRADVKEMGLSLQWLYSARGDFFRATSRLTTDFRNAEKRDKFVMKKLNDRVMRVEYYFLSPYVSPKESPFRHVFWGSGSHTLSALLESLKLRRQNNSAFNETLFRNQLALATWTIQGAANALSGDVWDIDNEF
The experiment is described as above.

The target of the next experiment is T4, cynomolgus aC1s (cynomolgus, UniProt A0A2K5VQX9 16-685).
T4 construct: also called Cyno aC1s; caC1s
T4 sequence: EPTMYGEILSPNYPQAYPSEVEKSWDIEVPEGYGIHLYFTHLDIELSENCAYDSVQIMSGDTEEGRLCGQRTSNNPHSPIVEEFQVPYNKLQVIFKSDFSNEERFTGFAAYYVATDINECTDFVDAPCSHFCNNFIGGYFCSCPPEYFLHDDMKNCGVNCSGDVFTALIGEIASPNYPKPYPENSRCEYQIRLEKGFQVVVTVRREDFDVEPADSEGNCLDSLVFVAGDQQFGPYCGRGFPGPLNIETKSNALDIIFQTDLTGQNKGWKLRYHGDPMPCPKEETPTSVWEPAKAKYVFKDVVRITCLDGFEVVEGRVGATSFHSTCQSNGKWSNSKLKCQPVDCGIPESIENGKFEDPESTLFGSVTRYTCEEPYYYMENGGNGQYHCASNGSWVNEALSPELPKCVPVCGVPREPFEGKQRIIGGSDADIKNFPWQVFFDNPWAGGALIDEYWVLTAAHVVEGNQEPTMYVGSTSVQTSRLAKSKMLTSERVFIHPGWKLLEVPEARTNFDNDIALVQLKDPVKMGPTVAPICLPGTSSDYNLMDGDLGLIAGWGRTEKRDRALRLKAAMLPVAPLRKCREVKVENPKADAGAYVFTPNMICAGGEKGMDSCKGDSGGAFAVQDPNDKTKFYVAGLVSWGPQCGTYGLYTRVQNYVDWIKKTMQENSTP
Described as above.

T2 sequence (P02786 89-760 limits assumed): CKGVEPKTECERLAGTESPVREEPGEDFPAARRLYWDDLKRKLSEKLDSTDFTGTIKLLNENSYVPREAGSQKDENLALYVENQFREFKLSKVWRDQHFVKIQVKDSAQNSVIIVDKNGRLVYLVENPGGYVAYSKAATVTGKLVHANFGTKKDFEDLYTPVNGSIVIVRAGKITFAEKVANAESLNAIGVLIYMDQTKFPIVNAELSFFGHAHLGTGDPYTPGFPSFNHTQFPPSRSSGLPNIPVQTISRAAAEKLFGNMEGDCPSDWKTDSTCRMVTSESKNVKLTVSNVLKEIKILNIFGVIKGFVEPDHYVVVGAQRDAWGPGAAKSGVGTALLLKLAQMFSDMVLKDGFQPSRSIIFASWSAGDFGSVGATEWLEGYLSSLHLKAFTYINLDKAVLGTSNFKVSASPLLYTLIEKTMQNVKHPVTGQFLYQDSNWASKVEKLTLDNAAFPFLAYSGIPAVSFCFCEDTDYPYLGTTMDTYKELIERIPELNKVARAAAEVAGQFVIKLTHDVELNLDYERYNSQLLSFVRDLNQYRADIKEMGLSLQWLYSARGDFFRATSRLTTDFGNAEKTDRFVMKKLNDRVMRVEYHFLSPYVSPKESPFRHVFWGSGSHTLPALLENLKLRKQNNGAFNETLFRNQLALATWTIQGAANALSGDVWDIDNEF

B1: bispecific anti-aC1s (L4)/anti-TfR (531v25.v6) IgG4 antibody (bispecific antibody)
heavy 1: QVQLVQSGAEVKKPGASVKLSCTASGFNIKDDYIHWVKEAPGQGLEWIGRIDPADGHTKYAPKFQVKVTITADTSTSTAYLELSSLRSEDTAVYYCARYGYGREVFDYWGQGTTVTVSSASTKGPSVFPLAPCSRSTSESTAALGCLVKDYFPEPVTVSWNSGALTSGVHTFPAVLQSSGLYSLSSVVEVPSSSLGTKTYTCNVDHKPSNTKVDERVESDYGPPCPPCPAPEFEGGPSVFLFPPKPKDTLMISRTPEVTCVVVDVSQEDPEVQFNWYVDGVEVHNAKTKPREEQFNSTYRVVSVLTVLHQDWLNGKEYKCKVSNKGLPSSIEKTISKAKGQPREPQVCTLPPSQEEMTKNQVSLSCAVKGFYPSDIAVEWESNGQPENNYKTTPPVLDSDGSFFLVSRLTVDKSRWQEGNVFSCSVLHEALHSRFTQKSLSLSLG
light 1: DIVMTQSPDSLAVSLGERATISCKSSQSVDYEGDSYLNWYQKKPGQPPKLLIYDASNLESGVPDRFSGSGSGTDFTLTISSLQAEDVAVYYCQQSNEDPWTFGQGTKVEIKRTVAAPAVFIFPPSKKQLKSGTASVVCLLKNFYPREAKVQWKVDNALQSGNSQESVTEQDSKDSTYSLSSTLTLSKADYEKHKVYACEVTHQGLSSPVTKSFNRGEC
heavy 2: QVQLVQSGAEVKKPGASVKVSCKASGYTFTRYYLNWVRKAPGQGLEWIGMIDPSVSETHYAQKFQGRATLTVDKSTSTAYMELSSLRSEDTAVYYCSQIRLPYYYAMDSWGQGTTVTVSSASTKGPSVFPLAPCSRSTSESTAALGCLVKDYFPEPVTVSWNSGALTSGVHTFPAVLQSSGLYSLSSVVTVPSSSLGTKTYTCNVDHKPSNTKVDKRVESKYGPPCPPCPAPEFEGGPSVFLFPPKPKDTLMISRTPEVTCVVVDVSQEDPEVQFNWYVDGVEVHNAKTKPREEQFNSTYRVVSVLTVLHQDWLNGKEYKCKVSNKGLPSSIEKTISKAKGQPREPQVYTLPPCQEEMTKNQVSLWCLVKGFYPSDIAVEWESNGQPENNYKTTPPVLDSDGSFFLYSRLTVDKSRWQEGNVFSCSVLHEALHSHYTQKSLSLSLG
light 2: DIQMTQSPSSLSASVGDRVTITCRASQDIESFLNWYQEKPGKAPKLLIYYTSRLQSGVPSRFSGSGSGTDYTLTISSLQPEDFATYYCQQGNTLPRTFGGGTKVEIKRTVAAPSVFIFPPSDEQLKSGTASVVCLLNNFYPREAKVQWKVDNALQSGNSQESVTEQDSKDSTYSLSSTLTLSKADYEKHKVYACEVTHQGLSSPVTKSFNRGEC
notes: Purified from CHO cells; monovalent for aC1s
A word on the Kd: it is the equilibrium constant for the complex coming apart. Turning to B1, the “IC50, C3d deposition on neurons in iPSC tri-cultures with 3% serum” value in experiment [1] turned out to be 23.5 µg/mL. Moreover, in experiment [2], the “IC50, Wieslab Complement Pathway Assay” value turned out to be 1.08 µg/mL. In experiment [2], the “IC90, Wieslab Complement Pathway Assay” value is 7.6 µg/mL. Besides, the Kd in experiment [3] worked out at 28.6 nM; in experiment [4], 3.31 nM; in the experiment with cynomolgus TfR it was 43.7 nM; with cynomolgus aC1s it was 0.248 nM.

The record behind these values is patent US20250376511A1 (Sanofi, published 2025).
